Common to all, as to type: biochemical
Data set [1] is described as follows: β-galactosidase ONPG activity assay. The note with it: oNPG substrate, over 30 minutes. As to the method:
Standard β-galactosidase assays were performed at room temperature using o-nitrophenyl-β-D-galactopyranoside (ONPG, Sigma) as a substrate in […] with detection of o-nitrophenol release at 420 nm (UV-Spectra Max Spectrophotometer, Molecular Devices, USA). A typical reaction contained 50 mM sodium citrate buffer pH 5.6, 10 mM magnesium chloride and 100 mM potassium chloride with 2 mM ONPG and the desired amount of enzyme (usually […]). Partially purified AoBG (Sigma G5160, USA) was used as a positive control at a final concentration of 1 U mL−1. Vmax was calculated using the SpectraMax Plus software (Molecular Devices, USA) and when required kinetics were determined by varying the concentration of substrate and kinetic determinants calculated using Hyper™ (J. S. Easterby, Liverpool University).
(§1) Cells expressing enzyme variants grown in buffered minimal medium were induced for 72 hr with 1% methanol (refreshed every 24 hr), the culture supernatant harvested and assayed for standard ONPG activity over 30 minutes and mogroside V activity at pH 5.6, 37° C. for 72 hrs. The resultant activity data (Table 2) identified E200 and D258 as the likely catalytic pair for acid/base and nucleophilic attack of mogroside V by the A. oryzae β-glucosidase enzyme.

Data set [2] is described as follows: Standard mogroside biocatalytic assay, mogroside V substrate. As to the method: Standard mogroside biocatalytic assays were performed at 37° C. in 500 μL, volume 50 mM sodium citrate buffer pH 5.6, 10 mM magnesium chloride, 10 mM substrate (typically mogroside V) and 50 μg mL−1 enzyme, and incubated for 24-96 hours. Mogroside glucosidation activity was detected by direct HPLC detection and quantification of mogroside V substrate and mogroside products from filtered reaction supernatant, and quantified by comparison with standard curves based on peak.
(§2) Mogroside compounds HPLC separation and quantification was conducted using a Synergi Hydro-RP column (250 mm×4.6 mm or 150 mm×4.6 mm) with an initial flow rate of 1 mL min−1 and a water: acetonitrile gradient as per below, similar to that described by Zhou et al. (WO 2014/150127). Compounds were detected at 210 nm using diode array detector (Agilent Technologies, USA), and calibration curves established using standard curves from 0.1 to 10 mM.
as §1

Data set [3] can be described thus: Example 8 standard mogroside biocatalytic assay, Mog V as substrate. The settings on record: 37° C., pH 5.6; for % Siamenoside I: 72 hr. As to the method: (§3) Standard mogroside biocatalytic assays were performed at 37° C. in 500 μL volume 50 mM sodium citrate buffer pH 5.6, 10 mM magnesium chloride, 10 mM substrate (typically mogroside V or Siamenoside I) and 50 μg mL−1 enzyme, and incubated for 24-96 hours. Mogroside glucosidation activity was detected by direct HPLC detection and quantification of mogroside V substrate and mogroside products from filtered reaction supernatant, and quantified by comparison with standard curves based on peak area (see Analytical Methods).
as §2, with “Analytical Method: Mogroside” for “Mogroside”, “mM. 150 mm column retention times in minutes: mog V 9.5, sia 1 10.6, mog IVa 10.5, mog IV 11.3, mog III 12.6, mogl I 13.2. 250 mm column retention times: mog V 12.3, sia 1 13.2, mog IVa 13.5, mog IV 14.1, mog III 15.3, mog II 16.2.” for “mM.”

A short description of data set [4]: Example 8 standard mogroside biocatalytic assay, Sia I as substrate. The settings on record: 37° C., pH 5.6. As to the method:
as §3
as §2, with “Analytical Method: Mogroside” for “Mogroside”, “mM. 150 mm column retention times in minutes: mog V 9.5, sia 1 10.6, mog IVa 10.5, mog IV 11.3, mog III 12.6, mogl I 13.2. 250 mm column retention times: mog V 12.3, sia 1 13.2, mog IVa 13.5, mog IV 14.1, mog III 15.3, mog II 16.2.” for “mM.”

The nature of data set [5]: Example 8 standard mogroside biocatalytic assay, Mog V as substrate. The settings on record: 37° C., pH 5.6.
Data set [6] is described as follows: RRK loop library variant screening, mogroside V substrate. The note with it: second pass evaluation, 10 mM mogroside V, pH 5.6, 37° C., 72 hours. The procedure:
(§4) Single transformant colonies from 3.2.2 were inoculated into 2mL BMGY in 48 well-growth blocks and grown overnight at 30° C., 1000 rpm in a benchtop incubator before dilution of cell culture from each well into 2 mL BMM medium an equivalent well in a fresh growth block, to an OD600 nm of 1.0, and growing the induction growth blocks at 30° C., 1000 rpm in a benchtop incubator for 72 hours. The cells were then harvested (5000 g, 10 minutes) and the supernatant from each well concentrated using a 30 kDa cut-off Amicon Ultra 0.5 mL concentrator column (10 000 g, 5 minutes). Enzymatic assays were setup in fresh growth blocks to a total volume of 500 μL, comprising with 50 mM sodium citrate buffer pH 5.6, 10 mM magnesium chloride, 10 mM mogroside V and 50 μL concentrated supernatant (˜35 μg mL−1 protein). Assays were incubated without shaking at 37° C. for 72 hours. 190 μL of reaction was combined with 10 μL 10 mM internal standard (N-Boc-) and 5 μL analyzed by HPLC.
as §2, with “mM. 150 mm column retention times in minutes: mog V 9.5, sia 1 10.6, mog IVa 10.5, mog IV 11.3, mog III 12.6, mogl I 13.2. 250 mm column retention times: mog V 12.3, sia 1 13.2, mog IVa 13.5, mog IV 14.1, mog III 15.3, mog II 16.2.” for “mM.”
Therefore, variants showing improved function were chosen if they surpassed a yield value >70% by peak area during this first pass evolution.
(§5) 48 variants were selected based on Siamenoside I yields of >70% by peak area for a second pass evaluation. The cell lines were regrown and assayed with both mogroside V and Siamenoside I as substrates, independently.

Data set [7] in a line: RRK loop library variant second pass evaluation, Siamenoside I substrate. The note with it: Siamenoside I as substrate. The procedure:
as §4
as §2, with “mM. 150 mm column retention times in minutes: mog V 9.5, sia 1 10.6, mog IVa 10.5, mog IV 11.3, mog III 12.6, mogl I 13.2. 250 mm column retention times: mog V 12.3, sia 1 13.2, mog IVa 13.5, mog IV 14.1, mog III 15.3, mog II 16.2.” for “mM.”
as §5

[8] abbreviates: Mogroside hydrolysis, 72 h, 37 C., pH 5.6.
Setting [9] is: product ratio, 72 h, 37 C., pH 5.6.

Positions count from the first letter of the chain named. Numbers in names are those of the source. Entries after “also recorded” stand apart in the source; their conditions may differ.

B1: D258E: A. oryzae β-galactosidase variant, D258E (protein, UniProt Q2UCU3 19-1005, looked up, variant D258E)
Beta-galactosidase A: ASIKHRLNGFTILEHPDPAKRDLLQDIVTWDDKSLFINGERIMLFSGEVHPFRLPVPSLWLDIFHKIRALGFNCVSFYIDWALLEGKPGDYRAEGIFALEPFFDAAKEAGIYLIARPGSYINAEVSGGGFPGWLQRVNGTLRSSDEPFLKATDNYIANAAAAVAKAQITNGGPVILYQPENEYSGGCCGVKYPDADYMQYVMDQARKADIVVPFISNDASPSGHNAPGSGTGAVDIYGHESYPLGFDCANPSVWPEGKLPDNFRTLHLEQSPSTPYSLLEFQAGAFDPWGGPGFEKCYALVNHEFSRVFYRNDLSFGVSTFNLYMTFGGTNWGNLGHPGGYTSYDYGSPITETRNVTREKYSDIKLLANFVKASPSYLTATPRNLTTGVYTDTSDLAVTPLIGDSPGSFFVVRHTDYSSQESTSYKLKLPTSAGNLTIPQLEGTLSLNGRDSKIHVVDYNVSGTNIIYSTAEVFTWKKFDGNKVLVLYGGPKEHHELAIASKSNVTIIEGSDSGIVSTRKGSSVIIGWDVSSTRRIVQVGDLRVFLLDRNSAYNYWVPELPTEGTSPGFSTSKTTASSIIVKAGYLLRGAHLDGADLHLTADFNATTPIEVIGAPTGAKNLFVNGEKASHTVDKNGIWSSEVKYAAPEIKLPGLKDLDWKYLDTLPEIKSSYDDSAWVSADLPKTKNTHRPLDTPTSLYSSDYGFHTGYLIYRGHFVANGKESEFFIRTQGGSAFGSSVWLNETYLGSWTGADYAMDGNSTYKLSQLESGKNYVITVVIDNLGLDENWTVGEETMKNPRGILSYKLSGQDASAITWKLTGNLGGEDYQDKVRGPLNEGGLYAERQGFHQPQPPSESWESGSPLEGLSKPGIGFYTAQFDLDLPKGWDVPLYFNFGNNTQAARAQLYVNGYQYGKFTGNVGPQTSFPVPEGILNYRGTNYVALSLWALESDGAKLGSFELSYTTPVLTGYGNVESPEQPKYEQRKGAY
The Km is the concentration of substrate that gives half-maximal velocity. As a reminder, the kcat is the number of substrate molecules converted per active site and unit of time at saturation. The molecule B1 displayed an oNPG in data set [1] of 41.4 ± 0.9 mAu/min/mg. Moreover, in data set [2], the “rate of mogroside hydrolysis (in words)” value was “increased initial rate of mogroside hydrolysis; also recorded: increased rate of mogroside V hydrolysis”. Further, the “Initial Rate” value in data set [2] (Mogroside hydrolysis, 37 C., pH 5.6) was 2.70 µmol/min/mg. Also, in data set [2] (setting [8]), the “Reaction Progress” value stood at 99% and the “Sia 1” value is on record as 55%. In data set [2] (setting [9]), the “Sia:MogIII” value is recorded as 2.8 and the “Sia:MogIV” value is given as 2.1. Further, in data set [3], the “Reaction progress (% conversion)” value amounted to 99% and the “% Siamenoside I” value is reported as 55%. Moreover, in data set [4], the Km turned out to be 3310 ± 800 µM and the kcat worked out at 36.8 ± 3.1 s⁻¹. Moreover, in data set [5], the Michaelis constant (Km) worked out at 2500 ± 200 µM and the catalytic constant (kcat) was found to be 966 ± 26 s⁻¹.

B2: S2 RRK 12: RRK loop library clone, positions 204/205/208: GCV (wildtype) (protein, UniProt Q2UCU3 19-1005, looked up)
Beta-galactosidase A: B1 Beta-galactosidase A with E240D
Regarding B2, in data set [6], the “% Peak Area Siamenoside I” value came out at 66 % Peak Area and the “Reaction Progress” value was determined as 89. For the same molecule, the “Siamenoside I Substrate Evaluation % Peak Area Siamenoside I Left After 72 hr” value in data set [7] is 35 % Peak Area.

B3: S3 RRK 7: RRK loop library variant, positions 204/205/208: DSE (protein, UniProt Q2UCU3 19-1005, looked up, variant G204D C205S V208E)
Beta-galactosidase A: B1 Beta-galactosidase A with G186D, C187S, V190E, E240D
Consider B3, for which, in data set [6], the “% Peak Area Siamenoside I” value is on record as 72 % Peak Area and the “Reaction Progress” value amounted to 85. Further, in data set [7], the “Siamenoside I Substrate Evaluation % Peak Area Siamenoside I Left After 72 hr” value was found to be 73 % Peak Area.

B4: E142A RRK77: β-galactosidase variant, RRK substitutions ENR with E142A (protein, UniProt Q2UCU3 19-1005, looked up, variant E142A G204E C205N V208R)
Beta-galactosidase A: B1 Beta-galactosidase A with E124A, G186E, C187N, V190R, E240D
For B4, in data set [3], the “Reaction progress (% conversion)” value is recorded as 89% and the “% Siamenoside I” value is given as 76 ± 3.1%.

B5: S2 RRK 2: RRK loop library variant, positions 204/205/208: GDG (protein, UniProt Q2UCU3 19-1005, looked up, variant C205D V208G)
Beta-galactosidase A: B1 Beta-galactosidase A with C187D, V190G, E240D
For the molecule B5, in data set [6], the “% Peak Area Siamenoside I” value worked out at 76 % Peak Area and the “Reaction Progress” value was determined as 87. The “Siamenoside I Substrate Evaluation % Peak Area Siamenoside I Left After 72 hr” value in data set [7] was 78 % Peak Area.

B6: S2 RRK 16: RRK loop library variant, positions 204/205/208: NGR (protein, UniProt Q2UCU3 19-1005, looked up, variant G204N C205G V208R)
Beta-galactosidase A: B1 Beta-galactosidase A with G186N, C187G, V190R, E240D
Regarding B6, in data set [6], the “% Peak Area Siamenoside I” value was determined as 72 % Peak Area and the “Reaction Progress” value is on record as 87. The “Siamenoside I Substrate Evaluation % Peak Area Siamenoside I Left After 72 hr” value in data set [7] was 72 % Peak Area.

B7: S3 RRK 5: RRK loop library variant, positions 204/205/208: ESG (protein, UniProt Q2UCU3 19-1005, looked up, variant G204E C205S V208G)
Beta-galactosidase A: B1 Beta-galactosidase A with G186E, C187S, V190G, E240D
Consider B7, for which, in data set [6], the “% Peak Area Siamenoside I” value is on record as 73 % Peak Area and the “Reaction Progress” value is listed as 87. The “Siamenoside I Substrate Evaluation % Peak Area Siamenoside I Left After 72 hr” value in data set [7] is recorded as 69 % Peak Area.

B8: S2 RRK 13: RRK loop library variant, positions 204/205/208: EES (protein, UniProt Q2UCU3 19-1005, looked up, variant G204E C205E V208S)
Beta-galactosidase A: B1 Beta-galactosidase A with G186E, C187E, V190S, E240D
As to B8, in data set [6], the “% Peak Area Siamenoside I” value worked out at 72 % Peak Area and the “Reaction Progress” value is 88. The “Siamenoside I Substrate Evaluation % Peak Area Siamenoside I Left After 72 hr” value in data set [7] is on record as 73 % Peak Area.
